T1: FcγRIIb (human, UniProt P31994 43-217)
T1 construct: extracellular domain; Soluble extracellular domain with C-terminal His tag, used as analyte in Biacore; also called FcgRIIb; 2b; not shown: His tag attached to the C terminus
T1 sequence (looked up): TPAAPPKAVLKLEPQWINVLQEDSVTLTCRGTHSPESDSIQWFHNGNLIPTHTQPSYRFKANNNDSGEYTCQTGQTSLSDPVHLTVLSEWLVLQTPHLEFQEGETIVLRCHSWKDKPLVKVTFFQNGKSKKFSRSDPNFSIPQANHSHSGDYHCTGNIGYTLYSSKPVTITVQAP

T2: FcγRIIa H (FcγRIIa, type H allotype, His at position 131), extracellular domain with C-terminal His tag (human, UniProt P12318 34-217)
T2 construct: extracellular domain; Soluble receptor expressed in FreeStyle293 cells; analyte in Biacore; also called FcgRIIa H; 2aH; not shown: C-terminal His tag
T2 sequence (looked up): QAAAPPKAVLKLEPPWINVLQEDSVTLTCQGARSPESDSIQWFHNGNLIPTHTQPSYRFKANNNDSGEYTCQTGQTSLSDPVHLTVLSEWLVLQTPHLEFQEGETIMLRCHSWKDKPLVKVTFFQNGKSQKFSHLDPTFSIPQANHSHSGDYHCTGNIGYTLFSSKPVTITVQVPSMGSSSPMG

T3: FcγRIIb, extracellular domain with C-terminal His tag (human, UniProt P31994 43-217)
T3 construct: extracellular domain; Soluble receptor expressed in FreeStyle293 cells; analyte in Biacore; also called FcgRIIb; 2b; not shown: C-terminal His tag
T3 sequence (looked up): T1 sequence (looked up)

B1: GpH7-A5/GpH7-B3 variant G236_10E/GpL16-k0 (antibody, human IgG1, kappa)
heavy 1: not shown
heavy 2: not shown
light: DIVMTQSPLSLPVTPGEPASISCQASESLVHSNRNTYLHWYLQKPGQSPQLLIYKVSNRFSGVPDRFSGSGSGTDFTLKISRVEAEDVGVYYCSQNTHVPPTFGQGTKVEIERTVAAPSVFIFPPSDEQLKSGTASVVCLLNNFYPREAKVQWKVDNALQSGNSQESVTEQDSKDSTYSLSSTLTLSKADYEKHKVYACEVTHQGLSSPVTKSFNRGEC
notes: Heterodimerized IgG1; mutation in the GpH7-B3 H chain only; also called He Ab
B2: GpH7-A5/GpH7-B3 variant G237_13S/GpL16-k0 (antibody, human IgG1, kappa)
heavy 1: not shown
heavy 2: not shown
light: B1 light
notes: as for B1
B3: GpH7-A5/GpH7-B3 variant A327_01G/GpL16-k0 (antibody, human IgG1, kappa)
heavy 1: not shown
heavy 2: not shown
light: B1 light
notes: as for B1
B4: GpH7-A5/GpH7-B3 variant E269_11K/GpL16-k0 (antibody, human IgG1, kappa)
heavy 1: not shown
heavy 2: not shown
light: B1 light
notes: Heterodimerized IgG1; mutation only in the GpH7-B3 chain; also called He Ab
B5: GpH7-A5/GpH7-B3 variant Q295_03V/GpL16-k0 (antibody, human IgG1, kappa)
heavy 1: not shown
heavy 2: not shown
light: B1 light
notes: as for B4
B6: GpH7-A5/GpH7-B3 variant E269_12R/GpL16-k0 (antibody, human IgG1, kappa)
heavy 1: not shown
heavy 2: not shown
light: B1 light
notes: as for B4
B7: GpH7-A5/GpH7-B3 variant E269_18N/GpL16-k0 (antibody, human IgG1, kappa)
heavy 1: not shown
heavy 2: not shown
light: B1 light
notes: as for B4
B8: GpH7-A5/GpH7-B3 variant S298_14T/GpL16-k0 (antibody, human IgG1, kappa)
heavy 1: not shown
heavy 2: not shown
light: B1 light
notes: as for B4
B9: GpH7-A5/GpH7-B3 variant Y300_11K/GpL16-k0 (antibody, human IgG1, kappa)
heavy 1: not shown
heavy 2: not shown
light: B1 light
notes: as for B4
B10: GpH7-A5/GpH7-B3 variant S298_18N/GpL16-k0 (antibody, human IgG1, kappa)
heavy 1: not shown
heavy 2: not shown
light: B1 light
notes: as for B4
B11: GpH7-A5/GpH7-B3 variant Q295_20W/GpL16-k0 (antibody, human IgG1, kappa)
heavy 1: not shown
heavy 2: not shown
light: B1 light
notes: as for B4
B12: GpH7-A5/GpH7-B3 variant Q295_13S/GpL16-k0 (antibody, human IgG1, kappa)
heavy 1: not shown
heavy 2: not shown
light: B1 light
notes: as for B4
B13: GpH7-A5/GpH7-B3 variant P271_15Y/GpL16-k0 (antibody, human IgG1, kappa)
heavy 1: not shown
heavy 2: not shown
light: B1 light
notes: as for B4
B14: GpH7-A5/GpH7-B3 variant S298_10E/GpL16-k0 (antibody, human IgG1, kappa)
heavy 1: not shown
heavy 2: not shown
light: B1 light
notes: as for B4
B15: GpH7-A5/GpH7-B3 variant Y300_03V/GpL16-k0 (antibody, human IgG1, kappa)
heavy 1: not shown
heavy 2: not shown
light: B1 light
notes: as for B4
B16: GpH7-A5/GpH7-B3 variant Q295_05P/GpL16-k0 (antibody, human IgG1, kappa)
heavy 1: not shown
heavy 2: not shown
light: B1 light
notes: as for B4
B17: GpH7-A5/GpH7-B3 variant P271_20W/GpL16-k0 (antibody, human IgG1, kappa)
heavy 1: not shown
heavy 2: not shown
light: B1 light
notes: as for B4
B18: GpH7-A5/GpH7-B3 variant E269_16H/GpL16-k0 (antibody, human IgG1, kappa)
heavy 1: not shown
heavy 2: not shown
light: B1 light
notes: as for B4

Target: T4, FcγRIa (human, UniProt P12314 16-292)
T4 construct: extracellular domain; Soluble extracellular domain with C-terminal His tag, used as analyte in Biacore; also called FcgRI; 1a; not shown: His tag attached to the C terminus
Assay: SPR (Biacore), antibody captured on antigen peptide, FcγR as analyte; relative to GpH7-A5/GpH7-B3/GpL16-k0 = 100

T4 sequence (P12314 16-292): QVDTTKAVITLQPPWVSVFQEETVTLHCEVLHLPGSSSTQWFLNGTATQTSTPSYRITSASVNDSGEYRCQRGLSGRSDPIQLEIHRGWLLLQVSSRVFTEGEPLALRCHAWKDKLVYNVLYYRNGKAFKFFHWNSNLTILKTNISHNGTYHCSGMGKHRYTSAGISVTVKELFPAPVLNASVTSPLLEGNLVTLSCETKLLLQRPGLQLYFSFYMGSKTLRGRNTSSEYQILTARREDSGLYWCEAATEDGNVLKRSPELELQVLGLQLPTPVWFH

He/Con_1a	Binder
93.7 % of control	B1
92.2 % of control	B2
99 % of control	B3

Target: T1, FcγRIIb
Assay: as above

He/Con_2b	Binder
110 % of control	B1
111 % of control	B2
116 % of control	B3

Target: T2, FcγRIIa H (FcγRIIa, type H allotype, …)
Assay: ratio of He/Con_2aH to He/Con_2b (FcγRIIa H over FcγRIIb), SPR

He_2aH/2b (IIaH/IIb)	Binder
2.87	B4
1.22	B5
1.86	B6
1.44	B7
1.26	B8
1.3	B9
1.28	B10
1.25	B11
1.22	B12
1.24	B13
1.22	B14
1.33	B15
1.53	B16
1.33	B17
1.53	B18

Target: T3, FcγRIIb, extracellular domain with …
Assay: SPR (Biacore), captured antibody, FcγR as analyte

He/Con_2b	Binder
17.8 relative, GpH7-A5/GpH7-B3/GpL16-k0 = 100	B4
75.7 relative, GpH7-A5/GpH7-B3/GpL16-k0 = 100	B5
25.2 relative, GpH7-A5/GpH7-B3/GpL16-k0 = 100	B6
44.8 relative, GpH7-A5/GpH7-B3/GpL16-k0 = 100	B7
77.9 relative, GpH7-A5/GpH7-B3/GpL16-k0 = 100	B8
51.6 relative, GpH7-A5/GpH7-B3/GpL16-k0 = 100	B9
48.1 relative, GpH7-A5/GpH7-B3/GpL16-k0 = 100	B10
44.4 relative, GpH7-A5/GpH7-B3/GpL16-k0 = 100	B11
56.9 relative, GpH7-A5/GpH7-B3/GpL16-k0 = 100	B12
52.3 relative, GpH7-A5/GpH7-B3/GpL16-k0 = 100	B13
47.6 relative, GpH7-A5/GpH7-B3/GpL16-k0 = 100	B14
73.9 relative, GpH7-A5/GpH7-B3/GpL16-k0 = 100	B15
67.5 relative, GpH7-A5/GpH7-B3/GpL16-k0 = 100	B16
58.1 relative, GpH7-A5/GpH7-B3/GpL16-k0 = 100	B17
38.5 relative, GpH7-A5/GpH7-B3/GpL16-k0 = 100	B18

Target: T2, FcγRIIa H (FcγRIIa, type H allotype, …)
Assay: SPR (Biacore), captured antibody, FcγR as analyte

He/Con_2aH	Binder
51.1 relative, GpH7-A5/GpH7-B3/GpL16-k0 = 100	B4
92 relative, GpH7-A5/GpH7-B3/GpL16-k0 = 100	B5
46.8 relative, GpH7-A5/GpH7-B3/GpL16-k0 = 100	B6
64.4 relative, GpH7-A5/GpH7-B3/GpL16-k0 = 100	B7
98.5 relative, GpH7-A5/GpH7-B3/GpL16-k0 = 100	B8
66.9 relative, GpH7-A5/GpH7-B3/GpL16-k0 = 100	B9
61.6 relative, GpH7-A5/GpH7-B3/GpL16-k0 = 100	B10
55.6 relative, GpH7-A5/GpH7-B3/GpL16-k0 = 100	B11
69.4 relative, GpH7-A5/GpH7-B3/GpL16-k0 = 100	B12
64.6 relative, GpH7-A5/GpH7-B3/GpL16-k0 = 100	B13
58 relative, GpH7-A5/GpH7-B3/GpL16-k0 = 100	B14
98 relative, GpH7-A5/GpH7-B3/GpL16-k0 = 100	B15
103 relative, GpH7-A5/GpH7-B3/GpL16-k0 = 100	B16
77.4 relative, GpH7-A5/GpH7-B3/GpL16-k0 = 100	B17
59 relative, GpH7-A5/GpH7-B3/GpL16-k0 = 100	B18

— patent US20180155451A1 (published 2018)
